Measured values taken from article PMC4372375.

Target: pancreatic polypeptide (UniProt P01298)

APLEPVYPGDNATPEQMAQYAADLRRYINMLTRPRY [pancreatic polypeptide]
LDH release assay, % cell death of SH-SY5Y cells after 30 h with 10 μM PP oligomers formed with heparin (PP incubated without heparin: no significant LDH release): 35%
